{"source": "patent US20180306789A1", "about": "(IMMATICS BIOTECHNOLOGIES, published 2018)"}
{"target": "HLA-A*02-presented DCAF4L2-001 on target cells (human)", "assay": "cell-based or functional assay", "units": {"EC50 of target peptide titration (IFNγ release)": "nM"}}
{"binder": "TCR R36P3F9 (TCR, V domains shown) V domain 1: SQQGEEDPQALSIQEGENATMNCSYKTSINNLQWYRQNSGRGLVHLILIRSNEREKHSGRLRVTLDTSKKSSSLLITASRAADTASYFCATVSNYQLIWGAGTKLIIKP V domain 2: EAQVTQNPRYLITVTGKKLTVTCSQNMNHEYMSWYRQDPGLGLRQIYYSMNVEVTDKGDVPEGYKVSRKEKRNFPLILESPSPNQTSLYFCASSSTSGGLSGETQYFGPGTRLLVLE", "EC50 of target peptide titration (IFNγ release)": "~3.6"}
{"binder": "TCR R52P2G11 (TCR, V domains shown) V domain 1: RGNGKNQVEQSPQSLIILEGKNCTLQCNYTVSPFSNLRWYKQDTGRGPVSLTIMTFSENTKSNGRYTATLDADTKQSSLHITASQLSDSASYICVVSAYGKLQFGAGTQVVVTP V domain 2: DAGVIQSPRHEVTEMGQEVTLRCKPISGHNSLFWYRQTMMRGLELLIYFNNNVPIDDSGMPEDRFSAKMPNASFSTLKIQPSEPRDSAVYFCASSLGSPDGNQPQHFGDGTRLSILE", "EC50 of target peptide titration (IFNγ release)": "~8.5"}
{"binder": "TCR R53P2A9 (TCR, V domains shown) V domain 1: QTVTQSQPEMSVQEAETVTLSCTYDTSESDYYLFWYKQPPSRQMILVIRQEAYKQQNATENRFSVNFQKAAKSFSLKISDSQLGDAAMYFCAYNSYAGGTSYGKLTFGQGTILTVHP V domain 2: DAGVTQSPTHLIKTRGQQVTLRCSPISGHKSVSWYQQVLGQGPQFIFQYYEKEERGRGNFPDRFSARQFPNYSSELNVNALLLGDSALYLCASSLDGTSEQYFGPGTRLTVTE", "EC50 of target peptide titration (IFNγ release)": "~11.8"}
